Results published in article doi:10.1101/2020.05.29.123786.
Several values for one entry are separate records, joined by “and”; a condition that tells them apart may be missing. Identical values can stand only once.

T1: PilQ from Pseudomonas aeruginosa (type IVa pilus secretin) (Pseudomonas aeruginosa), P34750
T1 chain: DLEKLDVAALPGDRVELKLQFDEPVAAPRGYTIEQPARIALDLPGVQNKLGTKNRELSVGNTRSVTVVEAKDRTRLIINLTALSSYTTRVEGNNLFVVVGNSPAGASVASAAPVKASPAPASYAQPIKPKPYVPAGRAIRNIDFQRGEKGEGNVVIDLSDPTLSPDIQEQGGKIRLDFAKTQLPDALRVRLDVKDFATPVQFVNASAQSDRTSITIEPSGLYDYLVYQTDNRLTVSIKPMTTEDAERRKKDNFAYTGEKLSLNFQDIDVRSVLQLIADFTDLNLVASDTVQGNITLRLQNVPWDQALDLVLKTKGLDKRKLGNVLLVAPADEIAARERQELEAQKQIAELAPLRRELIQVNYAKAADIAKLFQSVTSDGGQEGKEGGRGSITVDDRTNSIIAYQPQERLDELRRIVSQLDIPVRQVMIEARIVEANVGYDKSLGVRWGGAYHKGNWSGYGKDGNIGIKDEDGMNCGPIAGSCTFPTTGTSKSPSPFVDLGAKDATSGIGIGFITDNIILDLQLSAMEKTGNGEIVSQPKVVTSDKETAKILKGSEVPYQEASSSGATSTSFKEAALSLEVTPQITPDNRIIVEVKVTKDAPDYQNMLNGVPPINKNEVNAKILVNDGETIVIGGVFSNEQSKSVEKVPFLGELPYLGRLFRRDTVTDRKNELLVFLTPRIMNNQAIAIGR

B1: PilQ from Pseudomonas aeruginosa (type IVa pilus secretin), P34750 25-714 (natural protein)
chain: DLEKLDVAALPGDRVELKLQFDEPVAAPRGYTIEQPARIALDLPGVQNKLGTKNRELSVGNTRSVTVVEAKDRTRLIINLTALSSYTTRVEGNNLFVVVGNSPAGASVASAAPVKASPAPASYAQPIKPKPYVPAGRAIRNIDFQRGEKGEGNVVIDLSDPTLSPDIQEQGGKIRLDFAKTQLPDALRVRLDVKDFATPVQFVNASAQSDRTSITIEPSGLYDYLVYQTDNRLTVSIKPMTTEDAERRKKDNFAYTGEKLSLNFQDIDVRSVLQLIADFTDLNLVASDTVQGNITLRLQNVPWDQALDLVLKTKGLDKRKLGNVLLVAPADEIAARERQELEAQKQIAELAPLRRELIQVNYAKAADIAKLFQSVTSDGGQEGKEGGRGSITVDDRTNSIIAYQPQERLDELRRIVSQLDIPVRQVMIEARIVEANVGYDKSLGVRWGGAYHKGNWSGYGKDGNIGIKDEDGMNCGPIAGSCTFPTTGTSKSPSPFVDLGAKDATSGIGIGFITDNIILDLQLSAMEKTGNGEIVSQPKVVTSDKETAKILKGSEVPYQEASSSGATSTSFKEAALSLEVTPQITPDNRIIVEVKVTKDAPDYQNMLNGVPPINKNEVNAKILVNDGETIVIGGVFSNEQSKSVEKVPFLGELPYLGRLFRRDTVTDRKNELLVFLTPRIMNNQAIAIGR

Tests used:
Assay in all cases: cryo-EM structure
[1] = target: TsaP from Pseudomonas aeruginosa (Pseudomonas aeruginosa)
[2] = target: PilQ from Pseudomonas aeruginosa (type IVa pilus secretin) (Pseudomonas aeruginosa) (UniProt P34750)
[3] = target: T1, PilQ from Pseudomonas aeruginosa (type …); settings: remark: other sources report otherwise

Molecule	stoichiometry N [1]	stoichiometry N (TsaP per PilQ) [2]	stoichiometry N [3]
TsaP from Pseudomonas aeruginosa (natural protein)	7	0.5	–
B1	–	–	14 and 15
